The text below walks through data of US20250382384A1 (BEONE MEDICINES I, published 2025).

Residue numbers refer to the chain shown, from its start.

Assay [1] concerns the target T1, human MUC1 SEA domain protein (human, UniProt P15941 1036-1155).
T1 construct: also called HuMUC1-SEA; huMUC1 SEA
T1 sequence: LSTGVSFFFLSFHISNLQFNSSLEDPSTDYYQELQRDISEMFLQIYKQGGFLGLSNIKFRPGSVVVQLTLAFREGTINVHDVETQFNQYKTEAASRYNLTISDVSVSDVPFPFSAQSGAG
Put plainly: SPR (Biacore 2000), antibody captured, huMUC1 SEA analyte, 1:1 binding. Background: Surface plasmon resonance follows binding to a sensor surface in real time, without labels.

The target in assay [2] is T1, human MUC1 SEA domain protein. As to the kind of experiment: SPR, antibody captured, huMUC1 SEA analyte.

B1: BG138P-Bz0 (antibody, human IgG1, V domains shown)
VH: QVQLVQSGAEVKKPGASVKVSCKASGYTFTTYTMHWIKQAPGQGLEWIGYINPGSDYTHYNQKFKDKATLTADKSASTAYMELYSLRSEDTAVYYCARQGNYAAYYFDYWGQGTLVTVSS
VL: DIQMTQSPSSLSASVGDRVTITCRASGNIHNFLVWYQQKPGKSPKLLVYNAKTLTDGVPSRFSGSGSGTQYSLTISSLQPEDVATYYCQNFWNVPFTFGSGTKLEIK
notes: human IgG1/Ckappa
The Kd is the constant that tells how readily two partners part at equilibrium. Read a high Kd as a looser complex. In assay [1], B1 came in with a Kd of 0.464 nM.

B2: BG138P-Hz0 (antibody, human IgG1, V domains shown)
VH: B1 VH with I37V, K38R, G44R, I48M, K67R, A68V, L70I, A72R, K74T, Y84S
VL: B1 VL with S43V, V48I, Q70D, Y71F, S72T, S100Q
notes: human IgG1/Ckappa
In assay [1], B2 showed a Kd of 0.527 nM.

B3: BG138P-Bz2 (antibody, human IgG1, V domains shown)
VH: B1 VH with K38R
VL: B1 VL
notes: human IgG1/Ckappa
Turning to B3, binding in assay [1] was characterised by a dissociation constant (Kd) of 0.453 nM.

B4: BG138P-Bz3 (antibody, human IgG1, V domains shown)
VH: B1 VH with G44R
VL: B1 VL
notes: human IgG1/Ckappa
In turn, B4 registered an equilibrium dissociation constant (Kd) in assay [1] of 0.532 nM.

B5: BG138P-Bz7 (antibody, human IgG1, V domains shown)
VH: B1 VH with L70I
VL: B1 VL
notes: human IgG1/Ckappa
Regarding B5, the equilibrium dissociation constant (Kd) in assay [1] stood at 0.407 nM.

B6: BG138P-Bz5 (antibody, human IgG1, V domains shown)
VH: B1 VH with K67R
VL: B1 VL
notes: human IgG1/Ckappa
Regarding B6, in assay [1], binding was characterised by a dissociation constant (Kd) of 0.475 nM.

B7: huBG138P-Hz1 (antibody, V domains shown)
VH: B1 VH with I37V, K38R, G44R, I48M, K67R, A68V, L70I, K74T, Y84S
VL: B1 VL with S43V, V48I, D56S, Q70D, S72T, S100Q
notes: humanized; constant regions not restated (IgG1/Ckappa vector used for the first round)
The molecule B7 came in with a dissociation constant (Kd) in assay [2] of 0.241 nM.

B8: BG138P-Bz4 (antibody, human IgG1, V domains shown)
VH: B1 VH with I48M
VL: B1 VL
notes: human IgG1/Ckappa
Molecule B8 yielded a dissociation constant Kd in assay [1] of 0.488 nM.

B9: BG138P-Bz10 (antibody, human IgG1, V domains shown)
VH: B1 VH with Y84S
VL: B1 VL
notes: human IgG1/Ckappa
In assay [1], B9 showed a Kd of 0.448 nM.

B10: BG138P-Bz9 (antibody, human IgG1, V domains shown)
VH: B1 VH with K74T
VL: B1 VL
notes: human IgG1/Ckappa
As to B10, the affinity in assay [1], expressed as Kd, was 0.476 nM.

B11: BG138P-Bz8 (antibody, human IgG1, V domains shown)
VH: B1 VH with A72R
VL: B1 VL
notes: human IgG1/Ckappa
Turning to B11, the Kd in assay [1] was 0.608 nM.

B12: BG138P-Bz15 (antibody, human IgG1, V domains shown)
VH: B1 VH
VL: B1 VL with S72T
notes: human IgG1/Ckappa
In turn, B12 came in with a Kd in assay [1] of 0.493 nM. This Kd and that of the molecule before are within 1.5-fold of each other.

B13: BG138P-Bz1 (antibody, human IgG1, V domains shown)
VH: B1 VH with I37V
VL: B1 VL
notes: human IgG1/Ckappa
Molecule B13 showed a Kd in assay [1] of 0.503 nM.

B14: BG138P-Bz13 (antibody, human IgG1, V domains shown)
VH: B1 VH
VL: B1 VL with Q70D
notes: human IgG1/Ckappa
As for B14, the equilibrium dissociation constant (Kd) in assay [1] came out at 0.453 nM.

B15: huBG138P-Hz4 (antibody, V domains shown)
VH: B1 VH with I37V, K38R, I48M, K67R, A68V, L70I, Y84S
VL: B1 VL with V48I, D56S, S72T, S100Q
notes: humanized; constant regions not restated
In assay [2], B15 yielded a dissociation constant (Kd) of 0.223 nM.

B16: huBG138P-Hz3 (antibody, V domains shown)
VH: B1 VH with I37V, K38R, I48M, K67R, A68V, L70I, Y84S
VL: B1 VL with S43V, V48I, D56S, Q70D, S72T, S100Q
notes: as for B15
B16: in assay [2], the Kd amounted to 0.242 nM.

B17: BG138P-Bz11 (antibody, human IgG1, V domains shown)
VH: B1 VH
VL: B1 VL with S43V
notes: human IgG1/Ckappa
In turn, B17 returned a dissociation constant Kd in assay [1] of 0.513 nM.

B18: BG138P-Bz16 (antibody, human IgG1, V domains shown)
VH: B1 VH
VL: B1 VL with S100Q
notes: human IgG1/Ckappa
In assay [1], B18 showed a Kd of 0.466 nM.

B19: BG138P-Bz12 (antibody, human IgG1, V domains shown)
VH: B1 VH
VL: B1 VL with V48I
notes: human IgG1/Ckappa
In assay [1], B19 came in with an equilibrium dissociation constant (Kd) of 0.501 nM.

B20: BG138P-Bz14 (antibody, human IgG1, V domains shown)
VH: B1 VH
VL: B1 VL with Y71F
notes: human IgG1/Ckappa
Turning to B20, the dissociation constant Kd in assay [1] is 0.608 nM.

B21: BG138P-Bz6 (antibody, human IgG1, V domains shown)
VH: B1 VH with A68V
VL: B1 VL
notes: human IgG1/Ckappa
For the molecule B21, the Kd in assay [1] turned out to be 0.518 nM.
